Publication PMC10213618 (Frontiers in Immunology, 2023)
Primed or numbered codes have the meaning given here. Where no end group is shown, it is not given here. [ ]: non-standard residue; d: D form. PEG2′ = diethylene glycolate linker

Columns and labels:
[1] = biological target: T1, IL-17A (UniProt Q16552 24-155); experiment: cell-based or functional assay
[2] = biological target: T1, IL-17A; experiment: SPR; IL-17A amine-coupled to a CM5 chip (110-270 RU); chimeric peptides 1000 nM to 15.5 nM flowed in HBS-EP+; steady state fitting; details: both partners purified
[3] = biological target: T2, mouse serum albumin (mouse, UniProt P07724 25-608); experiment: SPR; HSA or MSA amine-coupled to a CM5 chip (110-270 RU); peptides 1000 nM to 15.5 nM flowed in HBS-EP+; multi-cycle kinetics, 1:1 binding model; details: both partners purified
T2 construct: mouse serum albumin; also called MSA
T2 sequence (P07724 25-608): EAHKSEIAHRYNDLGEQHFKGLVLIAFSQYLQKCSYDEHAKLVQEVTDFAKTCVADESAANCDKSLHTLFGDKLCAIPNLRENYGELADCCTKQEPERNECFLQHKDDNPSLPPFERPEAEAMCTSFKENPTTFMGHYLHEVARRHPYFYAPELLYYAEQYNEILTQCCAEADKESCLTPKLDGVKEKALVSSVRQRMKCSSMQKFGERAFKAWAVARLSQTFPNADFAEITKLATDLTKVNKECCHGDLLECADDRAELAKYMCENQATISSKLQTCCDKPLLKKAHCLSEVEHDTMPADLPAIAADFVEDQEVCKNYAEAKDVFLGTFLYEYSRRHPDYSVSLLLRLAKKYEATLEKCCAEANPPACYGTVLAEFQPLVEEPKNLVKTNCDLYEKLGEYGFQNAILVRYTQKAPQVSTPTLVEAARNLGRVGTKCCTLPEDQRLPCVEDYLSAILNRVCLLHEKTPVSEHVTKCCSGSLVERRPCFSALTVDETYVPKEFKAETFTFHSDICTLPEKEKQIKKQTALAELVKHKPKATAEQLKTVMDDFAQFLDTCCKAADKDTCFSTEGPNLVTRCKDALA

[4] = biological target: T3, human TNFα (Homo sapiens, UniProt P01375); experiment: SPR; Biacore 8K+, multi-cycle kinetics, 25°C; Fab captured by immobilised anti-human Fab antibodies; serial dilutions of TNFα injected in HBS-EP+; 1:1 binding model; details: both partners purified
T3 construct: human tumour necrosis factor alpha, UniProt P01375
T3 sequence (P01375 whole entry): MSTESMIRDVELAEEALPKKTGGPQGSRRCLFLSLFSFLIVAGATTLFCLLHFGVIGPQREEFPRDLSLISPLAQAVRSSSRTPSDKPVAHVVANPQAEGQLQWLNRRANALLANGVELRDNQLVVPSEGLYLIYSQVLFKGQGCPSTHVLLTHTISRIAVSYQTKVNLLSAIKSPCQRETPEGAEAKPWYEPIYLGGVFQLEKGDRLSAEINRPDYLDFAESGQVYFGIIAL

T1 sequence (Q16552 24-155): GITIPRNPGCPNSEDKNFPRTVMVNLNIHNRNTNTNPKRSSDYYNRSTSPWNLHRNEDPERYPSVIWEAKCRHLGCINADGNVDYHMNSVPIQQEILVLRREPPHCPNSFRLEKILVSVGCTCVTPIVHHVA

IC50 of inhibition of IL-6 release from human dermal fibroblasts stimulated with IL-17A and TNFα (blocks IL-17A with IL-17RA) [1] [nM] | Kd [2] [nM] | Kd [3] [nM] | koff [3] [s⁻¹] | kon [3] [M⁻¹ s⁻¹] | Kd [4] [nM] | koff [4] [s⁻¹] | kon [4] [M⁻¹ s⁻¹] | Binder
38 | 275 | 370 | 0.00166 | 4500 |  |  |  | aMSA-HAP chimeric peptide (disulfide (positions not given here); not fully specified) IHVTIPADLWDWINK[PEG2′]TCPDGQRDRGGCSGPYSCGGDNCCAYAAASVYRGYSCKDTYEW
 |  |  |  |  | 0.221 | 9.9e-05 | 447000 | FabT (Fab, V domains shown, humanised VH with human gamma1 CH1; humanised VL with human C kappa; also called parent FabT; unmodified FabT fragment; source: CHO-S XE, transient, purified (Protein G, SEC)) VH: EVQLVESGGGLVKPGGSLRLSCAASGYTFTDNYIHWVRQAPGKGLEWIGYINPSSAYAHYNEKFKTRFTISVDKAKNSAYLQMNSLRAEDTAVYYCTRRYYSAMPFAYWGQGTLVTVSS VL: DIQMTQSPSSLSASVGDRVTITCRASEDIYSGLAWYQQKPGKVPKLLIYDSSTLHTGVPSRFSGTGSGTDYTLTISSLQPEDVATYFCQQNYDFPLTFGQGTKLEIK
